{
  "source": "patent US9394371B2",
  "about": "“Antibody-mediated disruption of quorum sensing in bacteria” (The Scripps Research Institute, priority 2007, dated 2016)",
  "molecules": {"B1": {"name": "AP4-4-20: anti-AIP4 human scFv from phage display, expressed in E. coli; probably AP4-20, SEQ ID NO: 53 (protein, listed as Homo sapiens)", "scFv": "QVQLQQSGAGLLRPSETLSLTCGLYGGSFSGHYWNWIRQSPEKGLVWIGEITHSGTTNYNPSLKSRVITSVDTSKNQYSLKLSFVTPADTAVYYCARGDYYGYWYFDLWGRGTLVTVSSGGGGSGGGGSGGGGSQSVLTQPPSVPVAPGQKVTISCSGSSSNIGNNYVSWYQQLPGTAPKLLIYDTNKRPSGIPDRFAGSKSGTSATLGITGLQTGDEADYYCGTWDSSLSAGVFGGGTKLTVL"}, "B2": {"name": "AP4-29E10: murine monoclonal antibody raised against AP4 lactone hapten (antibody, V domains shown)", "VH": "EVQLQQSGPELEKPGASVKISCKASGHSFTGYNMNWVKQSNDKSLEWIGNIAPYYGVTAYNQKFKGKATLTGDKSSSTAYMQLKSLASEDSAVYYCVLDTSGYASWGQGTLVTVSA", "VL": "DIVMTQATASLTVSLGQRATISCRASKSVSTSGYSYMHWYQQKPGQPPKLLIYLASNLESGVPARFSGSGSGTDFTLNIHPVEEEDAATYYCQHSREVPYTFGGGTKLELK"}, "B3": {"name": "AP4-24H11: murine anti-AIP-4 monoclonal antibody; VH SEQ ID NO: 20, VL SEQ ID NO: 148 (antibody, V domains shown)", "VH": "EVKPQESGPGLVKPSQSLSLTCTVTGYSITSNYAWNWIRQFPGNKLEWMGFISSYGTTTYNPSLKSRFSITRDTSKNQFFLQLHSVTIEDTGTYFCTREGDYWGQGTTLTVSS", "VL": "DIVMTQATLSLPVSLGDQASISCRSSQRLVPSNGNIYLHWFLQKPGQSPKLLIYKLSSRFSGVPDRFSGSGSGTDFTLKISRVESEDLGIYFCSQTTHVPYTFGGGTKLEIK", "modifications": "Murine"}},
  "key": {"[1]": {"tested_on": "S. aureus RN4850", "type": "cell-based"}, "[2]": {"target": "AIP-4", "assay": "Competition ELISA (free native AIP against hapten-BSA coated plates)", "type": "binding, S. aureus", "protocol": "(§1) The optimal concentrations of the AP4-BSA conjugate as well as of each mAb were determined. 96 well ELISA plates were coated with the appropriate amount of AP4-BSA conjugate respectively. The plates were blocked with 4% skim milk, washed and mAbs were added at the predetermined optimal concentration. The plates were washed and free antigen, i.e. the native AIPs 1-4, was added to the wells in a concentration series starting at 100 μM. The plate was incubated for 1 hour at 37° C., thoroughly washed, and goat anti-mouse-horseradish peroxidase (HRP) conjugate (Pierce, Rockford, Ill.) was added. After an incubation period of 1 hour at RT, the plate was thoroughly washed again and the HRP substrate (TMB substrate kit; Pierce) was added, the reaction was allowed to develop for 15 minute and stopped by the addition of 2 M H2SO4. The absorbance at 450 nm was read and the values plotted using GraFit (Erithacus Software Ltd). The free antigen concentration at which the absorbance value is 50% of the maximum absorbance was considered the Kd of the antibody for its antigen.\nas §1, with “For the competition ELISA analysis, the optimal concentrations” for “The optimal concentrations”, “of the AP1-BSA, AP3-BSA, or AP4-BSA conjugate,” for “of the AP4-BSA conjugate”, “or AP4-BSA conjugate, as well” for “the AP4-BSA conjugate as well”, “amount of AP1-BSA, AP3-BSA, or AP4-BSA conjugate” for “amount of AP4-BSA conjugate”, “blocked with 4 v % skim milk,” for “blocked with 4% skim milk,”, “for 15 minutes and stopped” for “for 15 minute and stopped”"}, "[3]": {"target": "AIP-3", "assay": "Competition ELISA (free native AIP against hapten-BSA coated plates)", "type": "binding, S. aureus", "protocol": "as §1\nas §1, with “For the competition ELISA analysis, the optimal concentrations” for “The optimal concentrations”, “of the AP1-BSA, AP3-BSA, or AP4-BSA conjugate,” for “of the AP4-BSA conjugate”, “or AP4-BSA conjugate, as well” for “the AP4-BSA conjugate as well”, “amount of AP1-BSA, AP3-BSA, or AP4-BSA conjugate” for “amount of AP4-BSA conjugate”, “blocked with 4 v % skim milk,” for “blocked with 4% skim milk,”, “for 15 minutes and stopped” for “for 15 minute and stopped”"}, "[4]": {"target": "AIP-2", "assay": "Competition ELISA (free native AIP against hapten-BSA coated plates)", "type": "binding, S. aureus", "conditions": "AP4-BSA coated plates"}, "[5]": {"target": "AIP-1", "assay": "Competition ELISA (free native AIP against hapten-BSA coated plates)", "type": "binding, S. aureus", "conditions": "AP4-BSA coated plates"}, "[6]": {"tested_on": "Jurkat cells", "assay": "S. aureus supernatant-induced PARP cleavage (apoptosis), Western blot", "type": "cell-based, Human", "conditions": "4 hours, FIG. 5"}, "[7]": {"tested_on": "S. aureus Wood 46", "type": "cell-based"}, "[8]": {"tested_on": "agr QS system in S. aureus RN4850", "type": "cell-based"}, "[9]": {"tested_on": "S. aureus RN4850, NRS168 and Wood 46", "type": "cell-based", "conditions": "24-hour growth period; FIG. 4B"}, "[10]": {"tested_on": "S. aureus RN4850", "type": "cell-based", "conditions": "FIG. 3B"}, "[11]": {"tested_on": "S. aureus RN4850", "assay": "Static biofilm analysis (crystal violet)", "type": "cell-based", "conditions": "antibody 0.2 mg/mL, FIG. 4C"}, "[12]": {"tested_on": "S. aureus RN4850", "assay": "Dermal infection model in mice (abscess formation)", "conditions": "for S. aureus-induced skin injury: flank injection", "description": "Additional control animals received 200 μL intradermal injections containing Cytodex beads or beads plus antibody. After injections were made the mice were monitored at least three times each day over a period of 4-7 days. At the conclusion of the monitoring period the mice were euthanized and tissues harvested for bacteriologic and histologic analysis.\nSKH1 euthymic hairless mice, 6-8 weeks old were obtained from Charles River Laboratories and housed in the biocontainment vivarium for one week before use in experiments. […] Cytodex 1 beads (GE Healthcare 17-0448-01) were suspended (1 gram in 50 mL) in Dulbecco's Phosphate Buffered Saline without calcium/magnesium (Gibco) overnight at 20° C. The supernatant was decanted and the beads washed three times by suspension in DPBS and 1 G sedimentation followed by autoclaving (121° C., 15 psi, 15 minutes). Staphylococcus aureus RN4850 (AIP4) was grown from frozen stock (BHI+20% glycerol) on brain heart infusion agar plates 35° C. overnight. Three representative colonies were combined to inoculate 2 mL CYGP broth, and after overnight incubation without shaking, 0.25 mL of the culture was used to inoculate 5 mL of CYGP followed by incubation at 35° C., 200 rpm for 3 hours. The culture was centrifuged 1,300×G at 4° C. for 20 minutes, the supernatant poured off, and the bacterial pellet was suspended in 1 mL DPBS without calcium/magnesium. The SKH1 received 200 μL intradermal flank injections containing S. aureus (1×10^7 or 1×10^8 bacteria), 4 μL packed volume Cytodex beads, DPBS, anti-AIP4 antibody or control IgG (0.6 or 0.06 mg). Additional control animals received 200 μL intradermal injections containing Cytodex beads or beads plus antibody. After injections were made the mice were monitored at least three times each day over a period of 4-7 days. At the conclusion of the monitoring period the mice were euthanized and tissues harvested for bacteriologic and histologic analysis.\nSubcutaneous injections of bacterial suspension or vehicle control were made in the flank of SKH1 hairless mice followed by close monitoring over seven days."}, "[13]": {"tested_on": "S. aureus RN4850", "assay": "Passive immunization against lethal S. aureus challenge", "type": "in vivo, SKH1 mice", "conditions": "antibody i.p. 2 hours before 3×10^8 S. aureus RN4850 i.p.; FIG. 8", "protocol": "FIG. 8 illustrate survival data obtained from passive immunization of mice with AP4-24H11 against S. aureus infection. […] The numbers in parenthesis show number of survivors/number per group. The log rank statistic, p=0.001; n=6 for each group.\nS. aureus RN4850 were stored at −80° C. in 20% glycerol/BHI medium, thawed and grown on BHI-agar plates overnight, and three separate colonies sampled to inoculate 2 mL CYGP medium. The inoculum culture was maintained 1 hour at 35° C. without shaking, followed by shaking at 200 rpm for 3 hours. Aliquots of the freshly grown inoculum culture were transferred to 5 mL CYGP medium in 50 mL conical polypropylene tubes (1/20 dilution) followed by shaking at 200 rpm, 35° C. for 3 hours. The bacteria were pelleted by centrifugation at 3,000 rpm (1300×G) for 10 minutes, 4° C. […]\nMab AP4-24H11, isotype-matched control IgG (1 mg each) or DPBS was administered i.p. in DPBS to SKH1 mice (6-9 weeks old; 6 animals per treatment group) followed two hours later by 0.5 mL DPBS^− i.p. containing 3×10^8 S. aureus. The mice were monitored several times on the day of injection and twice each day on subsequent days, observing ambulation, alertness, response to handling and skin temperature measured by infrared thermometry (Raytek MiniTemp MT4) using a 1 cm diameter infrasternal skin site. […]"}, "[14]": {"conditions": "AP4 Sups, AP4-BSA coated plates, competing hybridomas re-tested, average, read-out: AIP4 wt"}, "[15]": {"conditions": "selected AP4 mAbs, AP4-BSA coated plates, average of at least two measurements, read-out: Binding constant, AIP-4"}, "[16]": {"conditions": "selected AP4 mAbs, average of at least two measurements, read-out: Binding constant, AIP-3"}, "[17]": {"conditions": "selected AP4 mAbs, average of at least two measurements, read-out: Binding constant, AIP-2"}, "[18]": {"conditions": "AP4 Sups, competing hybridomas re-tested, average, read-out: AIP1 wt"}, "[19]": {"conditions": "selected AP4 mAbs, average of at least two measurements, read-out: Binding constant, AIP-1"}},
  "note": "Read-outs that look alike come from different tables or passages of the source.",
  "data": [
    {"molecule": "B1", "values": [
      {"measurement": "hemolysins secretion (α-hemolysin western analysis)", "setting": "[1]", "value": "clear reduction in hemolysins secretion"}
    ]},
    {"molecule": "B2", "values": [
      {"measurement": "Kd", "setting": "[2]; [14]", "value": "~24", "unit": "nM"},
      {"measurement": "Kd", "setting": "[2]; AP4 Sups, tested 5 different times, read-out: AIP4 Kd, variability over 5 different tests", "value": "2 to 110", "unit": "nM"},
      {"measurement": "Kd", "setting": "[2]; [15]", "value": "~24", "unit": "nM"},
      {"measurement": "Kd", "setting": "[3]; AP4 Sups, read-out: AIP3 wt", "value": "> 25000", "unit": "nM"},
      {"measurement": "Kd", "setting": "[3]; [16]", "value": "> 25000", "unit": "nM"},
      {"measurement": "Kd", "setting": "[4]; AP4 Sups, read-out: AIP2 wt", "value": "> 25000", "unit": "nM"},
      {"measurement": "Kd", "setting": "[4]; [17]", "value": "> 25000", "unit": "nM"},
      {"measurement": "Kd", "setting": "[5]; [18]", "value": "~3000", "unit": "nM"},
      {"measurement": "Kd", "setting": "[5]; [19]", "value": "~3000", "unit": "nM"}
    ]},
    {"molecule": "B3", "values": [
      {"measurement": "Kd", "setting": "[2]; [14]", "value": "~98", "unit": "nM"},
      {"measurement": "Kd", "setting": "[2]; [15]", "value": "~90", "unit": "nM"},
      {"measurement": "Kd", "setting": "[3]; AP4 Sups, read-out: AIP3 wt", "value": "> 25000", "unit": "nM"},
      {"measurement": "Kd", "setting": "[3]; [16]", "value": "> 25000", "unit": "nM"},
      {"measurement": "exoprotein expression/secretion (SDS-PAGE)", "setting": "[1]", "value": "affects the expression and/or secretion of S. aureus exoproteins"},
      {"measurement": "hemolysins secretion (α-hemolysin western analysis)", "setting": "[1]", "value": "clear reduction in hemolysins secretion"},
      {"measurement": "protein A expression (Western blot)", "setting": "[1]; 20-24 hours", "value": "significantly increased"},
      {"measurement": "α-hemolysin expression (Western blot)", "setting": "[1]; 20-24 hours", "value": "reduce the α-hemolysin expression"},
      {"measurement": "PARP cleavage induced by RN4850 supernatant", "setting": "[6]; supernatant (1%) of culture grown with antibody", "value": "prevented RN4850 supernatant (1%)-induced PARP cleavage"},
      {"measurement": "PARP cleavage induced by Wood 46 supernatant", "setting": "[6]; supernatant of culture grown with antibody", "value": "partially inhibited the effect of Wood 46 supernatant"},
      {"measurement": "α-hemolysin production (Western blot)", "setting": "[7]", "value": "notable decrease in α-hemolysin production"},
      {"measurement": "Kd", "setting": "[4]; AP4 Sups, read-out: AIP2 wt", "value": "> 25000", "unit": "nM"},
      {"measurement": "Kd", "setting": "[4]; [17]", "value": "> 25000", "unit": "nM"},
      {"measurement": "eta mRNA fold-change", "setting": "[8]", "value": "−8.1±1", "unit": "fold"},
      {"measurement": "hla mRNA fold-change", "setting": "[8]", "value": "−5.2±3.1", "unit": "fold"},
      {"measurement": "rnaIII mRNA fold-change", "setting": "[8]", "value": "−77±48", "unit": "fold"},
      {"measurement": "saeR mRNA fold-change", "setting": "[8]", "value": "+1.4±0.4 fold"},
      {"measurement": "sarA mRNA fold-change", "setting": "[8]", "value": "−2.1±0.6", "unit": "fold"},
      {"measurement": "spa mRNA fold-change", "setting": "[8]", "value": "+5.7±3.6 fold"},
      {"measurement": "decrease of eta transcription", "setting": "[8]; RN4850", "value": "≈ 10 fold"},
      {"measurement": "elevation of spa transcription", "setting": "[8]; RN4850", "value": "3 to 5", "unit": "fold"},
      {"measurement": "suppression of hla transcription", "setting": "[8]; RN4850", "value": "3 to 5", "unit": "fold"},
      {"measurement": "reduction of rnaIII transcriptional level", "setting": "[8]; RN4850, stationary growth phase", "value": "> 50", "unit": "fold"},
      {"measurement": "change in saeR transcription", "setting": "[8]; RN4850, no significant changes", "value": "≤ 2", "unit": "fold"},
      {"measurement": "change in sarA transcription", "setting": "[8]; RN4850, no significant changes", "value": "≤ 2", "unit": "fold"},
      {"measurement": "Kd", "setting": "[5]; [18]", "value": "~5000", "unit": "nM"},
      {"measurement": "Kd", "setting": "[5]; [19]", "value": "~5000", "unit": "nM"},
      {"measurement": "growth of S. aureus in presence of antibody", "setting": "[9]", "value": "no significant growth changes"},
      {"measurement": "hemolytic activity of treated supernatant on blood agar plates", "setting": "[10]", "value": "no hemolytic activity was observed"},
      {"measurement": "static biofilm formation", "setting": "[11]", "value": "increased biofilm formation"},
      {"measurement": "condition of mice injected with PBS/Cytodex containing antibody, no bacteria", "setting": "[12]; 0.6 mg antibody, occasional local induration, FIG. 7D", "value": "remained normal"},
      {"measurement": "S. aureus-induced skin injury", "setting": "[12]; 10^8 bacteria with 0.06 mg antibody", "value": "not protective"},
      {"measurement": "S. aureus-induced skin injury", "setting": "[12]; 10^8 bacteria with 0.6 mg antibody, 7 day observation", "value": "skin injury was abrogated"},
      {"measurement": "survivors/number per group through the 8-day observation period", "setting": "[13]", "value": "6/6"}
    ]}
  ]
}
